Test results as given in the domain aggregation screens of Martell et al. (2025).

Assay: soluble fraction after stress (log2 fold change); higher = more stays soluble; pooled small domains, quantitative proteomics
Conditions: stress: 50 degC
Outline: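 Pooled custom libraries of small protein domains were each held under stress at 50°C. The read-out, high-throughput quantitative proteomics, tracked how much of each protein stayed soluble. This is reported as a base-two log fold change used to indicate aggregation propensity. Higher values mean more protein remains in solution.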

| Sequence | soluble fraction (log2) |
| --- | --- |
| HMEHAETDTRERILVVAERLFRQLGYQKTTVADIAKELRMSPANVYRFFDSKKSIHEGVARTL | -0.228 |
| HMEHETTQLELNAPGQRLDAALALALPDTSRAQIQQWIKQGLVTDQAGTALLQASLKLKSPLNVVLQRPI | 0.178 |
| HMEHIDVSGRAFDVSVSRLKRARRLTMRIDTHKQLVKISAPLHVESSTIRAFLARNQNWLEQQVEKR | -0.881 |
| HMEHLTATERHLVAYLEAHLGQVPSLSITKLSQEANVSTASIVRTMKKLGYDGFTAFKHAIKQQLR | -1.77 |
| HMEHTPHGVALLRTLMDQYGLKAADLANELGSKSNVSNILNGRRALTVSHIKMLAERFNLPADAFI | -0.914 |
| HMEIALNDKQILLFSNKLVHEPSFASKYSKVGESYDDFAIRISENLTIPDKVQEYLPYLEKVGFNI | -0.00852 |
| HMEIDDPWLILGINAGSSIEIAQKAWKDLASQNHPDKLIANGVPKELLGMANEKLAIINGAYDKILKAHKI | -0.262 |
| HMEIETPEIRAIHDLLELLANKAKKPEQEQFVQAHPEVQWAKVEANKNGTFAVGKVKAYLKTLQA | -0.308 |
| HMEIGNVIAKLRVSNGLNQREFAKKLEVSNGAVAMWETNKRQPDLEMIKKISNLFDVPTDYILGAGTFQ | -0.458 |
| HMEIIFVEHKVRPGESVWLIARKYKVKKNHILAVNNLSEKSIIRPKQILKIPTSGYDQYKKSVE | -3.22 |
| HMEIIMIVITKPSITDERIAEIVAVIERNGGVQAHVSKGTDRTVIGIIGKAEPTLAEHLRQMKGVENVIKI | 0.0636 |
| HMEIPMRDKLKTYIDYLFAGAPQTAATAETKAEILQNTLDKYDDLIAEGKTPEAAYSLAVSGIGDLGDF | -0.0827 |
| HMEIPTEEILKQKLYYSISEVASWFKVNTSLLRYWENEFDILQPRKTRKGDRLFRVEDIKNLQLIYLL | 0.107 |
| HMEITGKYKAKEDIKLKVIPLISSLDLQDIKQNTELEVKDTMNNWAYVTVQEKQGWVVLEKIEKVE | -0.0549 |
| HMEITTLTGVLGAGRLDSALAAALPQYSRARIQALISDAALRINGQVVADAGSKKMSGQTFELNIPAPVP | -0.31 |
| HMEKDEYIFVDIDGAVFNPGVYKLIAGSRVIDAINLAGGLKEKAFTQNLNKARKLVDGEKIYIYLEGDEE | -0.585 |
| HMEKDRDKRIRKRVLTALKRNDKKMTDKAFALLTSRIRDESILDQEVLKLIGYVGDRTTIDSKDINIVVAE | 0.0525 |
| HMEKEEELNSIRPDLDGNDIMEILGVPAGPKVGKAYNYLLNVRLDEGPLSRAEAISRLEAWWENQ | -0.368 |
| HMEKELVSDFASRISTARSSKGWNHAELGKRMAETVNVIKSAESGKPPTDSVVKKLERVLGITLMEV | -0.17 |
| HMEKEYMKNVVGMEYRQARVLLGDMGLELAFQPVYETSDKYPTDVVVSTEPAADQPLTKGQTVILHIST | 0.288 |
| HMEKGNEEALEQAREAILAVQSGEKYVDLDPANAAIRRKQHALAQASDLVSQSYGKDPNRYVRIFR | 0.34 |
| HMEKINLLVENNDNYRLDKIIALNMEELSRTQIQEMIGQGLVLVNGKVEKASYKTKLNDQIEITIED | 0.0401 |
| HMEKKKVPEVAGQDEAAARNVMTNSGFVVDVEQKEDDNVPAGKVITTAPAGGVEVVEGTKIILYVSKGSN | 0.113 |
| HMEKKPYGEMHNVMLTDEELEKLRHDYPAHFAEYIQRLSLHIDAKGARYKSHYAVIRKWLIADGVKA | -0.679 |
| HMEKLIRIKRLIKQLNEYRDSYYNEARPVVSDAAYDKLFDELSELEKETGVVYANSPTQTVG | -0.149 |

| Sequence | soluble fraction (log2) |
| --- | --- |
| HMEKPTEITLSNRVSVQELAEKMYVSETDIIRTLFLDGRIININQVLDIDTAIRVGEQLGIKIKII | -0.496 |
| HMEKPTRNKLVEIIIQNKNVTTEQMANLLNISRRAVAKHIKKLQEEGIIRRIGPDFGGHWEIVK | 0.0258 |
| HMEKPYTPPANLNEIQSYEELSKAVQYYNKVKDAATTDADRLKAQQSIDTLEDMRKAWDAASST | 0.072 |
| HMEKSLSAQVYEKIKAGIISLKYPPGSVLKERELSESLGVSRTPVREAIQRLSQESWLVPGEGKRMQVRP | 0.134 |
| HMEKTLAERVNDILAEIKMTKQELAMQLNISRSAVSQYLNGKYSSNPEAIEARLRDFVSSYDRG | -0.0754 |
| HMEKYIVEAEEQGKRLDMYISSKDEELTRTSAQRLIEQGDILVNNKKVKVAYKVSEGDIIAVEKQ | 0.0849 |
| HMELDLPLEELGLSTRVLHSLKEEGIESVRALLALNLKDLKNIPGIGERSLEEIKEALEKKGFTLK | -0.0498 |
| HMELEENTERVLNILIENDIISENDIAEKLEVKINGARKALYKLKEVGFVEYTKERDEEKKWWYIYFWKLN | -0.0109 |
| HMELEKIRPDLDGLEIMAILGISPSPIVGRAYQYLLDLRMDRGPLGPDAAKAELLNWWSLNQPK | -1.3 |
| HMELGRQDSAQLGRWAAGILAKNGKKITGRTMEFFLSRTGDDMENISSELEKLISYTLGREVITEEDIEAV | -0.351 |
| HMELGWYVRLRRRELGLSVTALAEKAGMSQSYLSQIETGDRGNPSPESLRSLAEALEVSPRELESLV | -0.331 |
| HMELMKPPGYWQSLENAIYESKKVIKEHGFDTLPSSNKLRELDYHGLSRAISVHHSGFPNFREIMNQELGI | 0.172 |
| HMELNDEELIKGIQELLTKIGYDPGEINGVLGIKTSSAISAFQQSRNKAITGEADLDLLVQLQIELRKITT | -0.674 |
| HMELNGVSETAKSVYSIILNNSSTVDDIVIKTKLPAAKVMQALTELELNDAVERKSGGVYALP | 0.13 |
| HMELPADLATVLSVDDIRAIALAEVPGSTITGVELEREEGVLVYKVKFNDGSYKLYDANTGELV | 0.174 |
| HMELPPLEPIDRILVVQQPINIREQPGVLAKKIGRVSSGETLTILAKVSGQDWYFVETDNGGRGYVFKRV | -0.555 |
| HMELQYSQEIEEAQKILENLGLYRGEIDGINGINTKSAIREFQRKSGLVVDGILGPNTTNALSKGSDAYIT | 0.094 |
| HMELVQIIGNNIRDLMTTRSVTITDLANYLNVSRQTLQNYLRGSNIIDSVKLVAVSDFFDVPVESLLQSK | -1.04 |
| HMEMGNKIKELRTKLGITQEELSKTLNVSSQAVSKWENGGLPDLELIPEIAKYFNVTTDYLFDIK | 0.0658 |
| HMEMKVIPFNQMTRDQFDQLDRFLGRLAAAQAMGSLRLTKAQQNYFLNQVKQLDLYRKRILN | -0.787 |
| HMEMTSREIIKRLEEDGWYHVKTTGDHYQMKHPTKPGKVTIVHPAKDLSIGTLRSIEKQSGVRL | -0.0157 |
| HMEMVSMPGLTGSTLEFATKTLTENELKYEVVYIVDASAESGLIIRTYPTEGEMVSKKTSTIYLYIKE | -0.756 |
| HMENDGQFLRAEREKYGLTLTDIYEHTHIPIKKLKAYEMWEEEMPPRTRALLELYFDQVAFEYDS | -0.8 |
| HMENDPYEILGIARSASDDEIKAKYRALTRENHPDILMAKGVPQEFIDLANEKMAVINAAYDKIEKER | 0.292 |
| HMENEDMTGDIRVIDYIRNVAEYIQTTKGQASASQMLDRFLFPPELQYTPLDKLSGGEQRRLYLLKVLMEA | 0.0342 |

| Sequence | soluble fraction (log2) |
| --- | --- |
| HMENEFEAYSDGSSIQLNDPSKATYVVFDRQGRLLHLFQNHSLSSLSIERKNQILIITRETADGVSVKKIV | -0.415 |
| HMENEIPVPELVGMSEADAAAKLASLGLERDTQREATADEESVGKVLRQEPTPGEYVDEGHKVTIWVGE | -0.0704 |
| HMENFSTLFSRLKEERGLSNKQISSFTGAPIKEVKKWESGMGIPTEKRIVAALEGILGSEISKAI | -0.0124 |
| HMENHILIIDDDLMLLKTAEEILSDQYNVSVAKSGIQALNLLNKNIIPDLILLDIDMPQMDGYETL | -0.0279 |
| HMENIIFDIGFHKGEDTLFYLLKGYRVIAVDADPDLINEWQNIFKKYIENGKLLLLNYVISDT | -1.33 |
| HMENISVESKMKLLLKSLKTRDFISLPELVLKGESKLAISVILVAALELNRKGYIEVVQAEQFGEIYFKNT | -0.191 |
| HMENKVLVITEEEKGKRLDVYLAAALEVSRSYAQQLIQGEDVVVNDKQVKANYRLSEGDVVQVQLD | ≥ 0.62 |
| HMENLIEELTAKNKEYIHSVTKQLILVGKSDEEVKEILNDILPQIIEGQKSGIIARKLLGAPTEFVSQYQP | 0.011 |
| HMENLQLQQLVKGLPEKMQEIVILRFSQELTMREIADIVNLPMRTVQSQLRLALKILKKEMG | -0.447 |
| HMENLSFNINSEEEGQRIDKYLSVMIEGKSRSFVQGLIEEKKVKANSKVIKSNYKLKKGDFIEVEVPEPV | 0.27 |
| HMENLSGNDIKYLRKKYNLTQKELADALGLQKFGDRTIRRWEAEETHPSKLEQSSIQSFFNSLK | 0.0091 |
| HMENLTLVIGNKLKNIRNSRNLSLDDVAELTGVSKAMLGQIERGKSNPTVSTLWKISTGLRVSFSSFIDE | -2.2 |
| HMENLVPVVVATTNIEPRTQITDAMVKVEQIPALGRNESMLEDPALVVGGYATGKIYAGQSFIQPMVSK | 0.179 |
| HMENNIILNYVKDNLNITEKDAKDLIELLGSDYYHIKNETNKIAAFLDGQPYSFEKIKNLISIDKEY | 0.0808 |
| HMENPLETYYSQWVSAIKREHPEASFVKDTDGKYYVEGLTKNRLAVIYENPHLVRLVNATTNLHVE | -0.305 |
| HMENPVPVIITDQNFQPLLWKNVGVPTDTIFHELSPENQKKLENLMKTMVQMPLTDDGRISGYAYYSK | -0.195 |
| HMENQFNDWSLTPSEKEVALFMLKGLSTQEIAAARNTKEKTVRQQASAVYAKSQLDGRYALAAWFFEDI | -0.567 |
| HMENQMIIYIDENDENKRLDSYLSEITPDYSRSKIQNFIKNGNVTVNDSNKKPSYLLKENDKISFELPQQ | 0.00635 |
| HMENSLLSESLAKIYIKTHRYERAYEILSRLSLAVPEKNAYFADQLRFLRKVMLAESFRKQHS | -0.00623 |
| HMENTSPMTPEQSKALMAYLTKRHGDSREAYLSELSQFFGRPLSSSRELTKADVSEFLNAIN | 0.161 |
| HMENVVESIYNKMVESITNGQWAAGSKIPTENELAKTYQVSRSSVRQAISRLKALGLLESRQGSGTVIKK | 0.272 |
| HMENWMPNLVNQDKRLAINTLRELGFTEEAGNLVIREETSEDVTKDYVISTDPVAETDLADVEKVTLVVSS | 0.0767 |
| HMENYIEQLTAKNSEYIHVVTRELVKIGKSDEEIKAILSDILPQIVAAQDQRVLAKDILGTPSEFTAKYAP | 0.173 |
| HMEPDDLTVIKGIGPVAAKDLNEQGIITFAQLAKLSDKDVAKIDEHMPFSADQIKDWREQAKELAK | 0.263 |
| HMEPDEIVLDHRKRIENSDAIVLIAPIWNFRMPAILEGWIDKVLAPPWAFKFKKLFGNYGYPVGNLKG | 0.103 |
